From the supplement of paper PMC9112550, “Optimization of the antimicrobial peptide Bac7 by deep mutational scanning” (BMC Biology, 2022)

system: Escherichia coli TOP10; test: shrunken log2 fold change of peptide-encoding DNA abundance (4.5 h post-induction vs induction); higher = less antimicrobial activity (less host growth inhibition); conditions: time post-induction: 4.5 h; library: site-saturation at positions 5, 18, 19, 20
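Further: peptides expressed intracellularly from a pBAD plasmid library in pooled LB shake-flask culture, induced with 0.3% L-arabinose, DNA abundance read by NGS, three biological replicates, DESeq2 with apeglm shrinkage.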

Row | Sequence | shrunken log2 fold change
1 | RRIRNRPPRLPRPRPRPLDMPRP | -0.0766
2 | RRIRGRPPRLPRPRPRPRVGPRP | 1.02
3 | RRIRVRPPRLPRPRPRPYVYPRP | -0.0156
4 | RRIRMRPPRLPRPRPRPLFIPRP | -0.643
5 | RRIRLRPPRLPRPRPRPIMIPRP | -0.286
6 | RRIRGRPPRLPRPRPRPPANPRP | 1.12
7 | RRIRWRPPRLPRPRPRPNTFPRP | 2.19
8 | RRIRARPPRLPRPRPRPLQHPRP | 1.22
9 | RRIRCRPPRLPRPRPRPHQAPRP | -0.0274
10 | RRIRIRPPRLPRPRPRPHWKPRP | -0.0691
11 | RRIRERPPRLPRPRPRPHGTPRP | 0.0284
12 | RRIRNRPPRLPRPRPRPCNDPRP | -0.274
13 | RRIRTRPPRLPRPRPRPHMHPRP | -0.543
14 | RRIRERPPRLPRPRPRPVGSPRP | -0.174
15 | RRIRKRPPRLPRPRPRPHCMPRP | 0.159
16 | RRIRWRPPRLPRPRPRPPEPPRP | -0.011
17 | RRIRYRPPRLPRPRPRPQSCPRP | 0.0148
18 | RRIRERPPRLPRPRPRPRWEPRP | 0.0891
19 | RRIRNRPPRLPRPRPRPSNQPRP | -0.299
20 | RRIRIRPPRLPRPRPRPTMNPRP | -1.01
21 | RRIRWRPPRLPRPRPRPMIQPRP | -0.000914
22 | RRIRCRPPRLPRPRPRPYHMPRP | -0.56
23 | RRIRHRPPRLPRPRPRPNNWPRP | -0.269
24 | RRIRIRPPRLPRPRPRPSMNPRP | -0.717
25 | RRIRTRPPRLPRPRPRPFELPRP | -0.0363

Row | Sequence | shrunken log2 fold change
26 | RRIRRRPPRLPRPRPRPSLIPRP | -0.118
27 | RRIRDRPPRLPRPRPRPSDQPRP | 0.204
28 | RRIRQRPPRLPRPRPRPHPYPRP | -0.0131
29 | RRIRYRPPRLPRPRPRPWNFPRP | -0.00304
30 | RRIRYRPPRLPRPRPRPMSDPRP | 0.0277
31 | RRIRSRPPRLPRPRPRPFINPRP | -0.639
32 | RRIRERPPRLPRPRPRPYQTPRP | -0.135
33 | RRIRRRPPRLPRPRPRPEPFPRP | -0.0448
34 | RRIRRRPPRLPRPRPRPYIHPRP | -0.794
35 | RRIRRRPPRLPRPRPRPCNLPRP | -0.0686
36 | RRIRNRPPRLPRPRPRPIWYPRP | -0.0752
37 | RRIRRRPPRLPRPRPRPDSDPRP | 0.021
38 | RRIRMRPPRLPRPRPRPSGPPRP | 0.205
39 | RRIRVRPPRLPRPRPRPVEPPRP | 0.218
40 | RRIRERPPRLPRPRPRPQAGPRP | 0.275
41 | RRIRYRPPRLPRPRPRPFPHPRP | -0.137
42 | RRIRYRPPRLPRPRPRPPDHPRP | 0.0391
43 | RRIRQRPPRLPRPRPRPRYGPRP | -0.407
44 | RRIRSRPPRLPRPRPRPSMRPRP | 0.369
45 | RRIRPRPPRLPRPRPRPLHGPRP | 0.0827
46 | RRIRGRPPRLPRPRPRPRLAPRP | 1.35
47 | RRIRNRPPRLPRPRPRPSDGPRP | 0.0337
48 | RRIRRRPPRLPRPRPRPWMLPRP | 0.227
49 | RRIRCRPPRLPRPRPRPDKVPRP | -0.224
50 | RRIRPRPPRLPRPRPRPNAWPRP | 0.356

Row | Sequence | shrunken log2 fold change
51 | RRIRKRPPRLPRPRPRPGPQPRP | 0.561
52 | RRIRPRPPRLPRPRPRPIQRPRP | 0.364
53 | RRIRSRPPRLPRPRPRPYFFPRP | -0.682
54 | RRIRDRPPRLPRPRPRPQSSPRP | 0.0176
55 | RRIRHRPPRLPRPRPRPMWNPRP | -0.0721
56 | RRIRIRPPRLPRPRPRPTDGPRP | -0.00546
57 | RRIRCRPPRLPRPRPRPGAMPRP | 0.319
58 | RRIRKRPPRLPRPRPRPLKGPRP | -0.022
59 | RRIRKRPPRLPRPRPRPEERPRP | 1.23
60 | RRIRRRPPRLPRPRPRPCVDPRP | 0.163
61 | RRIRFRPPRLPRPRPRPQLSPRP | -0.0854
62 | RRIRERPPRLPRPRPRPSKAPRP | -0.129
63 | RRIRRRPPRLPRPRPRPKNRPRP | -0.0177
64 | RRIRPRPPRLPRPRPRPANMPRP | -0.219
65 | RRIRSRPPRLPRPRPRPSAKPRP | 2.05
66 | RRIRGRPPRLPRPRPRPRHVPRP | 0.218
67 | RRIRIRPPRLPRPRPRPHCMPRP | -0.697
68 | RRIRNRPPRLPRPRPRPERPPRP | 0.499
69 | RRIRERPPRLPRPRPRPARGPRP | 0.644
70 | RRIRSRPPRLPRPRPRPHNAPRP | -0.197
71 | RRIRDRPPRLPRPRPRPCQHPRP | -0.276
72 | RRIRMRPPRLPRPRPRPVYCPRP | 0.00982
73 | RRIRARPPRLPRPRPRPMYCPRP | 0.0455
74 | RRIRDRPPRLPRPRPRPKWNPRP | -0.159
75 | RRIRPRPPRLPRPRPRPQMEPRP | 0.0168

Row | Sequence | shrunken log2 fold change
76 | RRIRYRPPRLPRPRPRPLPIPRP | -0.722
77 | RRIRNRPPRLPRPRPRPKRHPRP | -0.455
78 | RRIRPRPPRLPRPRPRPQCNPRP | -0.0419
79 | RRIRRRPPRLPRPRPRPSGRPRP | 0.0215
80 | RRIRGRPPRLPRPRPRPMCIPRP | 0.166
81 | RRIRHRPPRLPRPRPRPVGTPRP | 0.0773
82 | RRIRVRPPRLPRPRPRPKISPRP | -0.234
83 | RRIRFRPPRLPRPRPRPCIPPRP | 0.0633
84 | RRIRDRPPRLPRPRPRPFMPPRP | -0.124
85 | RRIRKRPPRLPRPRPRPVTRPRP | 0.754
86 | RRIRRRPPRLPRPRPRPYYNPRP | -0.807
87 | RRIRVRPPRLPRPRPRPGLDPRP | 0.0777
88 | RRIRIRPPRLPRPRPRPWPRPRP | 0.277
89 | RRIRNRPPRLPRPRPRPADNPRP | 0.0856
90 | RRIRWRPPRLPRPRPRPVLQPRP | 0.177
91 | RRIRCRPPRLPRPRPRPQHRPRP | -0.246
92 | RRIRDRPPRLPRPRPRPHQVPRP | -0.00776
93 | RRIRNRPPRLPRPRPRPRYFPRP | -0.342
94 | RRIRWRPPRLPRPRPRPQTTPRP | 0.206
95 | RRIRKRPPRLPRPRPRPMDFPRP | -0.0018
96 | RRIRTRPPRLPRPRPRPRYAPRP | 0.108
97 | RRIRIRPPRLPRPRPRPICIPRP | -0.127
98 | RRIRGRPPRLPRPRPRPTATPRP | 3.4
99 | RRIRLRPPRLPRPRPRPNHCPRP | -0.132
100 | RRIRDRPPRLPRPRPRPPMPPRP | 0.203

Row | Sequence | shrunken log2 fold change
101 | RRIRWRPPRLPRPRPRPVCMPRP | 0.193
102 | RRIRCRPPRLPRPRPRPIENPRP | -0.209
103 | RRIRTRPPRLPRPRPRPWHQPRP | -0.0236
104 | RRIRPRPPRLPRPRPRPYWFPRP | -0.579
105 | RRIRHRPPRLPRPRPRPSRQPRP | 0.212
106 | RRIRWRPPRLPRPRPRPSGGPRP | 2.77
107 | RRIRDRPPRLPRPRPRPGKKPRP | -0.00968
108 | RRIRMRPPRLPRPRPRPAKTPRP | 0.0368
109 | RRIRVRPPRLPRPRPRPMRHPRP | -0.00914
110 | RRIRGRPPRLPRPRPRPPHCPRP | 0.902
111 | RRIRPRPPRLPRPRPRPSLQPRP | 0.0128
112 | RRIRKRPPRLPRPRPRPHALPRP | 0.154
113 | RRIRTRPPRLPRPRPRPRPFPRP | 0.114
114 | RRIRIRPPRLPRPRPRPPCYPRP | -0.154
115 | RRIRERPPRLPRPRPRPFTNPRP | -0.457
116 | RRIRLRPPRLPRPRPRPMYTPRP | -0.119
117 | RRIRWRPPRLPRPRPRPRPCPRP | 0.514
118 | RRIRFRPPRLPRPRPRPYVYPRP | -0.196
119 | RRIRPRPPRLPRPRPRPSDCPRP | -0.0743
120 | RRIRVRPPRLPRPRPRPHGRPRP | -0.0651
121 | RRIRYRPPRLPRPRPRPLEMPRP | -0.0768
122 | RRIRDRPPRLPRPRPRPFRFPRP | -0.0342
123 | RRIRHRPPRLPRPRPRPSDQPRP | 0.0718
124 | RRIRARPPRLPRPRPRPQWKPRP | 0.179
125 | RRIRWRPPRLPRPRPRPASRPRP | -0.00682

Row | Sequence | shrunken log2 fold change
126 | RRIRMRPPRLPRPRPRPSFMPRP | 0.0821
127 | RRIRHRPPRLPRPRPRPFVMPRP | -0.281
128 | RRIRYRPPRLPRPRPRPDLFPRP | 0.108
129 | RRIRFRPPRLPRPRPRPYKQPRP | -0.83
130 | RRIRCRPPRLPRPRPRPIIEPRP | -0.851
131 | RRIRTRPPRLPRPRPRPKTYPRP | -0.566
132 | RRIRFRPPRLPRPRPRPAEDPRP | 0.0423
133 | RRIRMRPPRLPRPRPRPYPEPRP | -0.121
134 | RRIRHRPPRLPRPRPRPETMPRP | 0.054
135 | RRIRMRPPRLPRPRPRPAVIPRP | -0.1
136 | RRIRSRPPRLPRPRPRPLPRPRP | 0.741
137 | RRIRHRPPRLPRPRPRPGPCPRP | -0.254
138 | RRIRMRPPRLPRPRPRPPVCPRP | 0.439
139 | RRIRLRPPRLPRPRPRPPVVPRP | 0.218
140 | RRIRQRPPRLPRPRPRPSIQPRP | -0.13
141 | RRIRFRPPRLPRPRPRPDTAPRP | -0.22
142 | RRIRIRPPRLPRPRPRPFNSPRP | -0.384
143 | RRIRRRPPRLPRPRPRPEVVPRP | 0.472
144 | RRIRERPPRLPRPRPRPPCLPRP | -0.579
145 | RRIRNRPPRLPRPRPRPTMRPRP | 0.746
146 | RRIRMRPPRLPRPRPRPKEEPRP | 0.0115
147 | RRIRMRPPRLPRPRPRPSSHPRP | 0.0506
148 | RRIRIRPPRLPRPRPRPWAYPRP | 0.0382
149 | RRIRARPPRLPRPRPRPKFMPRP | 0.0584
150 | RRIRLRPPRLPRPRPRPQWHPRP | -0.193
